Measurements taken from patent US20110300131A1.

T1: CD70 expressed by cancer cell lines and tumor tissues (786-O, SK-OV-3/SKOV-3, Caki-1, PANC-1 and others) (UniProt P32970)
T1 sequence (looked up): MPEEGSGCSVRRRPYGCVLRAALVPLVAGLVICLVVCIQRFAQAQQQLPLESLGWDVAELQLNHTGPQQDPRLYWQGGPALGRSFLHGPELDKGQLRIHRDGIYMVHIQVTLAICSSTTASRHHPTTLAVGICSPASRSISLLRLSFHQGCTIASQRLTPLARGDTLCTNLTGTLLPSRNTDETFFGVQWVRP


Target: T1, CD70 expressed by cancer cell lines and tumor tissues (786-O, SK-OV-3/SKOV-3, Caki-1, PANC-1 and others)
Assay: cell-based or functional assay

Row | Molecule | IC50, viability of SKOV-3 cells after 96 hours (Promega CelltiterGlo) [µg/mL]
1 | h1F6mc-MMAF(4) (antibody) | 0.029
2 | h1F6vc-MMAF(4) (antibody, INN chains, looked up, V domains shown, vc-MMAF, 4 drugs per antibody) VH: QVQLVQSGAEVKKPGASVKVSCKASGYTFTNYGMNWVRQAPGQGLKWMGWINTYTGEPTYADAFKGRVTMTRDTSISTAYMELSRLRSDDTAVYYCARDYGDYGMDYWGQGTTVTVSS VL: DIVMTQSPDSLAVSLGERATINCRASKSVSTSGYSFMHWYQQKPGQPPKLLIYLASNLESGVPDRFSGSGSGTDFTLTISSLQAEDVAVYYCQHSREVPWTFGQGTKVEIK | 0.005
3 | h1F6vc-MMAE(4) (antibody, INN chains, looked up, V domains shown, vc-MMAE, 4 drugs per antibody) VH: QVQLVQSGAEVKKPGASVKVSCKASGYTFTNYGMNWVRQAPGQGLKWMGWINTYTGEPTYADAFKGRVTMTRDTSISTAYMELSRLRSDDTAVYYCARDYGDYGMDYWGQGTTVTVSS VL: DIVMTQSPDSLAVSLGERATINCRASKSVSTSGYSFMHWYQQKPGQPPKLLIYLASNLESGVPDRFSGSGSGTDFTLTISSLQAEDVAVYYCQHSREVPWTFGQGTKVEIK | 0.06
4 | h1F6mc-MMAF(8) (antibody, INN chains, looked up, V domains shown, mc-MMAF, 8 drugs per antibody) VH: QVQLVQSGAEVKKPGASVKVSCKASGYTFTNYGMNWVRQAPGQGLKWMGWINTYTGEPTYADAFKGRVTMTRDTSISTAYMELSRLRSDDTAVYYCARDYGDYGMDYWGQGTTVTVSS VL: DIVMTQSPDSLAVSLGERATINCRASKSVSTSGYSFMHWYQQKPGQPPKLLIYLASNLESGVPDRFSGSGSGTDFTLTISSLQAEDVAVYYCQHSREVPWTFGQGTKVEIK | 0.012
